Target: T1, bovine thyroglobulin (bovine, UniProt P01267 20-2769, carries alpha-gal (galactose-alpha-1,3-galactose) glycans)
T1 construct: Antigen coated on ELISA plates, blotted, or on the ImmunoCAP o215 solid phase; It is recognised through its alpha-gal glycans; also called BTG; Thyroglobulin, bovine
Test: direct ELISA, bovine thyroglobulin coated at 25 ug/ml, purified IgE dilution series
Excerpt: Relative fluorescence intensity or optical density was determination on a Molecular Devices plate reader.
By performing EC₅₀ assays using purified IgE mAb, rough comparisons between mAb binding can be made.

T1 sequence (P01267 20-2769 limits assumed): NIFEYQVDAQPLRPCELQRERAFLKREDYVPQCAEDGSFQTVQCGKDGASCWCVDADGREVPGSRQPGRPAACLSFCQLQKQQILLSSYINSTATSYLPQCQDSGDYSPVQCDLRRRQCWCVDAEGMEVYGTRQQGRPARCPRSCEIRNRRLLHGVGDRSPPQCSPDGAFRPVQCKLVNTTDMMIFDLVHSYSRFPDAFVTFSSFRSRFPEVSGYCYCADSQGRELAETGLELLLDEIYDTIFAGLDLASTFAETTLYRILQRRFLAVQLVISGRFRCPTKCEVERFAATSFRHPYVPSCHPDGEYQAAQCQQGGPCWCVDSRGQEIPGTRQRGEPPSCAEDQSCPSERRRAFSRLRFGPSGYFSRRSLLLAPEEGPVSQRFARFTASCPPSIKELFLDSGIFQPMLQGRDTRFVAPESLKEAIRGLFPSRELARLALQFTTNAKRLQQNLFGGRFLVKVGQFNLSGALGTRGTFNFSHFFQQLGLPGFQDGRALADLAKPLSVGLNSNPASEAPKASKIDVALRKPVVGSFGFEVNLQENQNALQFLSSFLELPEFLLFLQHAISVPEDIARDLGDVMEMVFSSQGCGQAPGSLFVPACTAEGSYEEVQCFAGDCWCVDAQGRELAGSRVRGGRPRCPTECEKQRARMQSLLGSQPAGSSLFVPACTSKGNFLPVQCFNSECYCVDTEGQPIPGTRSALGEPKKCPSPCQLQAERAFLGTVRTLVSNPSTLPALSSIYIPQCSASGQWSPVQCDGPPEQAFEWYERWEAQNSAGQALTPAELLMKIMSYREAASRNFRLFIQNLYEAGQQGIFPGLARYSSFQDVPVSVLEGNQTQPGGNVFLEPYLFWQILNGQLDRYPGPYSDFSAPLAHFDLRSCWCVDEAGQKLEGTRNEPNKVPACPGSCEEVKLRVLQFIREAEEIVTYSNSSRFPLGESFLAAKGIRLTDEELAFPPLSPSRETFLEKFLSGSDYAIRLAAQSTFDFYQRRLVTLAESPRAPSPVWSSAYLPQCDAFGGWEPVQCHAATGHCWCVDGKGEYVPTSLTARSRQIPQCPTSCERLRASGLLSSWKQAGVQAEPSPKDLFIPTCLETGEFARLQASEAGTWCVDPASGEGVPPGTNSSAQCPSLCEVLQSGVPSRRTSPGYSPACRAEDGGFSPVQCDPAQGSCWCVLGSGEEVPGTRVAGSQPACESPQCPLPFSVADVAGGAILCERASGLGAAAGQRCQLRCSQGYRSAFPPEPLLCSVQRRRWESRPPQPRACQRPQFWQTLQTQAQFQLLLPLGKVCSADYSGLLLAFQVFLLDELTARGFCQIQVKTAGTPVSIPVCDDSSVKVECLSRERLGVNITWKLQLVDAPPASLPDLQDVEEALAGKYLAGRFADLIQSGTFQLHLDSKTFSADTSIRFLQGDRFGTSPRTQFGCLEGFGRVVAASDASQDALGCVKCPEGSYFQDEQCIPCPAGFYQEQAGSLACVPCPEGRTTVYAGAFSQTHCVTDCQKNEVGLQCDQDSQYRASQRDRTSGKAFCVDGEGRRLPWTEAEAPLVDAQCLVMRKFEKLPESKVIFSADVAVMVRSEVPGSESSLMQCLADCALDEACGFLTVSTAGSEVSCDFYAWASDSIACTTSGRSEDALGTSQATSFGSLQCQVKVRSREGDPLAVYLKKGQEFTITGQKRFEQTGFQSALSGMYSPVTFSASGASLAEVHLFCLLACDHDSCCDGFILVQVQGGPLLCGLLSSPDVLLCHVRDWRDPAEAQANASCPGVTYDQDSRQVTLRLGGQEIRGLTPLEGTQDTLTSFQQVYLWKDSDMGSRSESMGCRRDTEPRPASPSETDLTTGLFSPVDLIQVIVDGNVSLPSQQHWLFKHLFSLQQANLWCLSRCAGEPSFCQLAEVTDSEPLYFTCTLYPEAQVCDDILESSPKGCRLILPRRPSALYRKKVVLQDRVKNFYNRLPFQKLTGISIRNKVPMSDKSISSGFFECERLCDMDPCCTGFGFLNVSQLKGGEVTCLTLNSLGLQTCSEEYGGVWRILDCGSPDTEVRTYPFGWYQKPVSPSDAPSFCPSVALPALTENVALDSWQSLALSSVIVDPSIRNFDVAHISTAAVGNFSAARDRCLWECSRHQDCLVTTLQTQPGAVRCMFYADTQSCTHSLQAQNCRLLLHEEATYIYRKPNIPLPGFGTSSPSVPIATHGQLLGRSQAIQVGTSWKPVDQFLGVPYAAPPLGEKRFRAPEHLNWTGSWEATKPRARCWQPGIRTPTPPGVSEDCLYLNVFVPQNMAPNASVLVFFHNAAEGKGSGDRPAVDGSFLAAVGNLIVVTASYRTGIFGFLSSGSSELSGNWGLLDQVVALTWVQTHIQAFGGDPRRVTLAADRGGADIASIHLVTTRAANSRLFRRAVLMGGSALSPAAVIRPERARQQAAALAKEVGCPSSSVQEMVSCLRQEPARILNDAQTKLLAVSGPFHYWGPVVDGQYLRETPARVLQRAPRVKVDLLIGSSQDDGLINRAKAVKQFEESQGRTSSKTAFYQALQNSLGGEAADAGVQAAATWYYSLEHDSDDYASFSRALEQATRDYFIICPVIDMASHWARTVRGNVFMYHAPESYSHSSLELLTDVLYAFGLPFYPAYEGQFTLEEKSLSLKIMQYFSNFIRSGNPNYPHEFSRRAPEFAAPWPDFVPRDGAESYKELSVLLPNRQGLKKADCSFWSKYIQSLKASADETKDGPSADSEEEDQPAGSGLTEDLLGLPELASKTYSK

B1: human alpha-gal-specific IgE mAb 10H8 (antibody, V domains shown)
VH: QVQLVESGGGVVQPGRSLRLSCAVSGFTFRSFGMHWVRQAPGKGLEWVAVIWHDGSNKHYADSVKGRFTISRDDSKNTLFLQMNSLRAEDTAVYYCARESEEQGNMDVWGQGTTVTVSS
VL: DVVMTQSPLSLPATLGQPASISCRSSHSLVYSNGNTYLNWFQQRPGQSPRRLFFQVSNRDSGVPDRFSGSGSVTNFTLKISRVEAEDVGVYYCMEGSHWPPYTFGQGTRLDIR
notes: the IgE constant regions are not
Work on B1 yielded an EC50 of 0.072 µg/mL.

B2: human alpha-gal-specific IgE mAb 16D9 (antibody, V domains shown)
VH: QVQLQQWGAGLLKPSETLSLTCAVYGGTFSDYFYTWIRQPPGKGLEWIGEVSHTGRTSYIPSLKSRVTMSVDTSKNQFSLNLSSVTDADTAVYYCGRGRGYTWNDWGQGTLVTVSS
VL: QSALTQPASVSGSPGQSITISCTGTITDVGGYDYVSWYQQHPGKAPKLIIFLVNNRPSGVSDRFSGSKSGNTASLTISGLRVEDEADYYCMSYTCSNPYTCSSLYVFGTGTKVTVL
notes: as for B1
B2 was tested, and the EC50 was 0.016 µg/mL.
